This is an account of results in patent US20200306375A1 (ALETA BIOTHERAPEUTICS, published 2020).

This assay deals with T1, FMC63 CAR-Flag (construct #140).
T1 construct: also called CAR19; CD19 CAR construct
In words: flow cytometry on 293T cells transfected with construct #140; anti-mouse Fc gamma-PE detection. The method, then:
Cells transfected with construct #140 (SEQ ID NO: 317) (2.5×10\hat{ }5 in 50 ul) were incubated with 50 u1 sup or purified (5 ug/ml as final conc.) protein of constructs#151/#152 (SEQ ID NO: 319/ SEQ ID NO: 320) for 30 min at 4° C., spun and washed twice with FACS buffer. This was followed by another incubation with anti-mouse Fc gamma-PE for 30 min at 4° C. Cells were spun and washed as above, and fixed with 1% PFA in PBS. Fixed cells were analyzed on Accuri 6 for CAR expression binding (PE positive).
On the technique in general: In flow cytometry, cells or beads pass a laser one at a time.

T1 sequence (chain, as listed by the source): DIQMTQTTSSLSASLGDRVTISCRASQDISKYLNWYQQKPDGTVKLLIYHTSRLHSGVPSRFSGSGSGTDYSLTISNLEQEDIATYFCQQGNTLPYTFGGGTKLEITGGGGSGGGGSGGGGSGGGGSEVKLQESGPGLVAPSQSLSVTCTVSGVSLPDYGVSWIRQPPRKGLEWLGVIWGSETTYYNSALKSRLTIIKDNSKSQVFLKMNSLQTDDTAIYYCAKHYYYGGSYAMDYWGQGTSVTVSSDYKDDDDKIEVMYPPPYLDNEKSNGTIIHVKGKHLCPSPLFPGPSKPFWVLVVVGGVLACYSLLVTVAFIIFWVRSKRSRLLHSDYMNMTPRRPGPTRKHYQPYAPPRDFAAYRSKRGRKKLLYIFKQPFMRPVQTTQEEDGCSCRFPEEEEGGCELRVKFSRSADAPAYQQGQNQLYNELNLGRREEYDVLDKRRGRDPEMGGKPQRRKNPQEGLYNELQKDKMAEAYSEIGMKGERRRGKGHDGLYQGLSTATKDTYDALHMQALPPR

B1: anti-FMC63 antibody, 136.20.1 (antibody, mouse IgG2a, kappa, V domains shown)
VH: EVKLVESGGGLVQPGGSLKLSCAASGFDFSRYWMSWVRQAPGKGLEWIGEINLDSSTINYTPSLKDKFIISRDNAKNTLYLQMSKVRSEDTALYYCARRYDAMDYWGQGTSVTVSS
VL: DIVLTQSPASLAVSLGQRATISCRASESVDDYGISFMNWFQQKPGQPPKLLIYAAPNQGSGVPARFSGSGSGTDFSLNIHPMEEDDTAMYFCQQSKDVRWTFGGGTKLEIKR
notes: also called anti-FMC63 (anti-Id) antibody; constructs #151/#152
For B1, the binding result is on record as “binds”.
